Test results as given in doi:10.1101/2025.07.29.667382 (bioRxiv, 2025).
Groups on a side chain read outwards from the residue. No end group written: not given here. Alexa‑547 = not defined here

T1: Snx3 (recombinant, without fluorescent tag) (yeast, UniProt Q08826 1-162)
T1 sequence: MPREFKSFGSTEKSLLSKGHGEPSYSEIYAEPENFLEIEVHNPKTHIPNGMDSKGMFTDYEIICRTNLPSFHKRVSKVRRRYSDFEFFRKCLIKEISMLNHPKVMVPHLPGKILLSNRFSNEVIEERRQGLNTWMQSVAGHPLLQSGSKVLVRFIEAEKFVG

B1: SNX-BAR (Vps5-Vps17) (complex)
chain 1: MDYEDNLEAPVWDELNHEGDKTQSLVSNSIESIGQISTNEERKDNELLETTASFADKIDLDSAPEWKDPGLSVAGNPQLEEHDNSKADDLINSLAPEQDPIADLKNSTTQFIATRESGGALFTGNANSPLVFDDTIYDANTSPNTSKSISGRRSGKPRILFDSARAQRNSKRNHSLKAKRTTASDDTIKTPFTDPLKKAEKENEFVEEPLDDRNERRENNEGKFTASVEKNILEQVDRPLYNLPQTGANISSPAEVEENSEKFGKTKIGSKVPPTEKAVAFKVEVKDPVKVGELTSIHVEYTVISESSLLELKYAQVSRRYRDFRWLYRQLQNNHWGKVIPPPPEKQSVGSFKENFIENRRFQMESMLKKICQDPVLQKDKDFLLFLTSDDFSSESKKRAFLTGSGAINDSNDLSEVRISEIQLLGAEDAAEVLKNGGIDAESHKGFMSISFSSLPKYNEADEFFIEKKQKIDELEDNLKKLSKSLEMVDTSRNTLAASTEEFSSMVETLASLNVSEPNSELLNNFADVHKSIKSSLERSSLQETLTMGVMLDDYIRSLASVKAIFNQRSKLGYFLVVIENDMNKKHSQLGKLGQNIHSEKFREMRKEFQTLERRYNLTKKQWQAVGDKIKDEFQGFSTDKIREFRNGMEISLEAAIESQKECIELWETFYQTNL
chain 2: MTSAVPYDPYDDLDNNPFAEPQEEDSEPAATTTDGSSSMSEERVGTEQTAASVQDNGTANNIQNGLGEEGNATRSKTSNEHNENQQPSQPSERVILPERSDEKKKYTLLAKVTGLERFGSATGKKENPTIIFDCSTNLPTFRKQQYKNVKKSYEEFHQLFKYLNVAIQESFVPTLPSAYTTFGINSEEDRMKVTRNFQLWFNRLSQDPLIIRNEEVAFFIESDFNTYTPINKSKSLASGLKRKTLKQLAPPYDEITELAEFRPLVKSIYVVSQSLQEKLLRVSRNRKMMVQEENAFGQDFVNLDEHNKLYRRYGKILTAVGDIDSIIATMDMATLYDGLEWIVRDAYAVKEALTNRHFIMRNLVQAQQNSKAKQEQARRFRSRRDINPMKIDEALRQLKAAAKNEQVLTLKLQRITSNMIIERKQWISWYEEWIRSSIKEFTLRKIEYERKKLTLLERVRSDIRKADENGGLSRLGRHAVSNNNSDTSQTLKGDSWTGESNRKSQIPINKIAHTEFDDELFTEDDGYNSQDSDTTSLNARHAASLLGMSTK

What was measured:
[1] = target: Retromer^mClover (Vps26-Vps29-Vps35, carrying mClover on Vps29) (yeast, UniProt P40335;P38759;P34110); assay: coat formation on supported membrane tubes, fluorescence microscopy
Sequence of Retromer^mClover (Vps26-Vps29-Vps35, carrying mClover on Vps29) (P40335 whole entry, chain 1 of 3): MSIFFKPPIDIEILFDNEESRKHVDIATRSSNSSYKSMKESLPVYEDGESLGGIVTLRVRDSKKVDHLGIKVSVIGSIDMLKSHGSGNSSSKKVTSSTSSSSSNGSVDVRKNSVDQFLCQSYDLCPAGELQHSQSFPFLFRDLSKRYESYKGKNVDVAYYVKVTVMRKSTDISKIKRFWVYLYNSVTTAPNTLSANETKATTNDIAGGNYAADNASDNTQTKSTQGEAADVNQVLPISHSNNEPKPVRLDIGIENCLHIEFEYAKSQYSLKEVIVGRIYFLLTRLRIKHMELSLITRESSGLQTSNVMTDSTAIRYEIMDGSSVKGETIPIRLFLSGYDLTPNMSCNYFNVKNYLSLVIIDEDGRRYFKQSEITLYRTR
Sequence of Retromer^mClover (Vps26-Vps29-Vps35, carrying mClover on Vps29) (P38759 whole entry, chain 2 of 3): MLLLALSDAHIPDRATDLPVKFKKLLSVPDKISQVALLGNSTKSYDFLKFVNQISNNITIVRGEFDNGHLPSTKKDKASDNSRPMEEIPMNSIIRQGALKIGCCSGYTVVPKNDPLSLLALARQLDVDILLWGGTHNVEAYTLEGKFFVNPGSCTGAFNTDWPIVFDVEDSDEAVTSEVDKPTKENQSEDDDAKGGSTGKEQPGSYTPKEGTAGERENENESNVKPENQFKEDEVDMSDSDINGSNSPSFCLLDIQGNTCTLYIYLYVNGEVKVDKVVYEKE
Sequence of Retromer^mClover (Vps26-Vps29-Vps35, carrying mClover on Vps29) (P34110 whole entry, chain 3 of 3): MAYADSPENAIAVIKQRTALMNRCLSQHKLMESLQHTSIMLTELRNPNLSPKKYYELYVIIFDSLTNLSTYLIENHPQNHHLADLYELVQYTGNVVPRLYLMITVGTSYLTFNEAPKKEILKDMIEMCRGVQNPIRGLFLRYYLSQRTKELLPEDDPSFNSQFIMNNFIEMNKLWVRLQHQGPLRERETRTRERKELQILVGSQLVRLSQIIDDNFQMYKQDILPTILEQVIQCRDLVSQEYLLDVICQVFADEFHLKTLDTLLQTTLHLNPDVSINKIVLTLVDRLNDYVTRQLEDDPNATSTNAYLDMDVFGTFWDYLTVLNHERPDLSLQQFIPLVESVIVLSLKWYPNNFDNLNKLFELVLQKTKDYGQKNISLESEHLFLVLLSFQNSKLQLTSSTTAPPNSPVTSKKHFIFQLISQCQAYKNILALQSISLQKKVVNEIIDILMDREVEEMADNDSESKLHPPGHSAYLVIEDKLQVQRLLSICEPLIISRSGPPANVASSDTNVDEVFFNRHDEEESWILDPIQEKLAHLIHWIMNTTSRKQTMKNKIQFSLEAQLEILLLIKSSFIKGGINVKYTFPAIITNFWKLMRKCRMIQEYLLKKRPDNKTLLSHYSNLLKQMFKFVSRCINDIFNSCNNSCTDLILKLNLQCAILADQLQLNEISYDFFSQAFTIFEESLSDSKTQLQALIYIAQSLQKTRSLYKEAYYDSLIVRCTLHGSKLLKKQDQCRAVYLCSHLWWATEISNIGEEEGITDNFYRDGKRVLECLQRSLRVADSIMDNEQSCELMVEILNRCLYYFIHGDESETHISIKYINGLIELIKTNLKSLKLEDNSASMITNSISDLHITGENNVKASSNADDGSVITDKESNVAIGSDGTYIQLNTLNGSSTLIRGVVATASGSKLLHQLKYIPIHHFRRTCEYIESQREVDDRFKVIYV

[2] = target: T1, Snx3 (recombinant, without fluorescent …); assay: as above

| Binder | binding result [1] | binding result [2] |
| --- | --- | --- |
| B1 | binds | – |
| GGGGGKKIINEEINLDSLGGC([maleimide-Alexa‑547]) (reading uncertain) [Ear1^547 (fluorescent Alexa-547-labelled Ear1 peptide)] | binds | binds |
